{"source": "patent US20230203158A1", "about": "(FLAGSHIP PIONEERING INNOVATIONS VII, published 2023)", "binders": {"B1": {"name": "IL-10 Fc (Creative Biomart IL10-326H), recombinant human IL-10 fused to a human Fc domain (Fc fusion, UniProt P22301 19-178, looked up)", "chain": "SPGQGTQSENSCTHFPGNLPNMLRDLRDAFSRVKTFFQMKDQLDNLLLKESLLEDFKGYLGCQALSEMIQFYLEEVMPQAENQDPDIKAHVNSLGENLKTLRLRLRRCHRFLPCENKSKAVEQVKNAFNKLQEKGIYKAMSEFDIFINYIEAYMTMKIRN", "notes": "also called positive control IL-10 Fc; hIL-10 Fc fusion; not shown: human Fc domain and any linker of the bought product"}, "B2": {"name": "PRO061 (anti-CDH17 antibody MAB8524 on a human IgG1 LALA-PG backbone, kappa light chain) (antibody, V domains shown)", "VH": "QSLEESGGRLVTPGTPLTLTCTVSGFSLTSYDMNWVRQAPGKGLEWIGVVRGSGRTYYASWAKGRFTIARTSSTTVDLKMTSLTTGDTATYFCARGDANNNYYEFDIWGPGTLVTVSS", "VL": "QDMTQTPSPVSAAVGGTVTINCQSSQSVYGDAWLSWFQQKPGQPPKLLIYSASTLASGVPSRFKGSGSGTQFTLTISDLESDDAATYYCAGGYDGINDIRAFGGGTEVVVKR"}, "B3": {"name": "PRO004 (anti-DSG1 antibody 3-07/1e on a human IgG1 LALA-PG backbone, lambda light chain) (antibody, V domains shown)", "VH": "QVQLVQSGGGLVQPGGSLRVSCAASGFTSNIFWMSWVRQAPGKGLEWVANIDEDGSEKNYVDSVKGRFTISRDNAKNSLYLQMNSLRAEDTAVYYCARESFYYGSGTYFDFWGQGTLVTVSS", "VL": "ELVVTQPPSVSGAPGQRVTISCTGSSSNIGAGYDVHWYQQLPGTAPKLLIYGNKNRPSGVPDRFSGSKSGTSASLAITGLRAEDEADYYCQSFDSSLGWVFGGGTQLTVLG", "notes": "human IgG1 with L234A, L235A, P329G"}}, "key": {"[1]": {"target": "T1, recombinant His-tagged human IL-10Ra (Creative Biomart) (human, UniProt Q13651 22-235)", "T1 construct": "also called IL-10 receptor alpha; not shown: His tag", "T1 sequence (looked up)": "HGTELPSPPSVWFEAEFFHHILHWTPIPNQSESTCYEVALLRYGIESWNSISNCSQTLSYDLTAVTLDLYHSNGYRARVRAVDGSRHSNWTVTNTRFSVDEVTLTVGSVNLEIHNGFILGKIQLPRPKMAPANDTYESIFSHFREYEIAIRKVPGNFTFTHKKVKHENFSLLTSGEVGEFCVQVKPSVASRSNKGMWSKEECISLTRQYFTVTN", "assay": "ELISA, His-tagged human IL-10Ra coated at 1 µg/mL", "protocol": "To test the binding of the IL-10/anti-DSG1 ANDbodies to IL-10 receptor alpha (IL-10Ra) by ELISA, recombinant His-tagged human IL-10Ra (Creative Biomart) was coated on NUNC-IMMUNO™ MAXISORP™ ELISA plates at 1 μg/mL concentration overnight. The next day, coated antigen was removed and the wells were blocked with 1% IgG-free BSA followed by incubation with 11 three-fold serially diluted anti-IL-10/anti-DSG1 ANDbodies (as provided above) with a starting concentration of 30 μg/mL. Bound antibody was detected with peroxidase-conjugated anti-human IgG antibodies with TMB and acid stop reagents."}, "[2]": {"target": "IL-10 receptor of HEK-BLUE IL-10 cells (the cells express all the components of the IL-10 signaling pathway)", "assay": "cell-based or functional assay"}, "[3]": {"target": "T2, mouse CDH17 (NCBI accession NP 062727.1) with a c-Myc epitope tag at the C terminus, transiently expressed in … (mouse, UniProt Q9R100 26-827)", "T2 construct": "whole, on cells; also called cadherin 17", "T2 sequence (looked up)": "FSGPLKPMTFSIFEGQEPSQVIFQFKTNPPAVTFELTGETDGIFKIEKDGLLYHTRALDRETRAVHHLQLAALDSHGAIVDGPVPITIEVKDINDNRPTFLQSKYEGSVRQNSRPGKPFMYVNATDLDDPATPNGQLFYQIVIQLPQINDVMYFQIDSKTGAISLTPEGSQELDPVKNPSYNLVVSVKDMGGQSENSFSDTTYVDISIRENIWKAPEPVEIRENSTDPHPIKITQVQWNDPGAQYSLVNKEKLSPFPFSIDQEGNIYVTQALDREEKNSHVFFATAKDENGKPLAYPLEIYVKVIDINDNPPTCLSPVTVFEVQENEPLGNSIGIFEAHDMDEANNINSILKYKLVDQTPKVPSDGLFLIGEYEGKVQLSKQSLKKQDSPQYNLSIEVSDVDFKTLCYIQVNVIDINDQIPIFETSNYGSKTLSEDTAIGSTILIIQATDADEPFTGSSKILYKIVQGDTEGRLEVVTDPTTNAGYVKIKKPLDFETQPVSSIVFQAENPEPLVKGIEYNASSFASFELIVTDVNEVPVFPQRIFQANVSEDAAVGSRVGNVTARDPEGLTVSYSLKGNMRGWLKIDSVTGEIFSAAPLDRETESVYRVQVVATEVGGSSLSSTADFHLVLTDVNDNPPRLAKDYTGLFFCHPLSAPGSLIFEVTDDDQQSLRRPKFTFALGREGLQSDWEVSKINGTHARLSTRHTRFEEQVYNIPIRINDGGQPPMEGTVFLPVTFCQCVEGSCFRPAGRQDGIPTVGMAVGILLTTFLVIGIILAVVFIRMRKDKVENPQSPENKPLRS", "assay": "flow cytometry on RAW 264.7 cells transiently expressing mouse CDH17", "text": "To confirm binding activity and specificity, mouse CDH17 (NCBI accession NP 062727.1) with a c-Myc epitope tag at the protein C terminus was transiently expressed in RAW 264.7 cells using LIPOFECTAMINE™ 3000 (ThermoFisher Scientific) according to the manufacturer's protocol."}, "[4]": {"target": "T3, Murine DSG1 (NCBI accession NP_034209.2) with a c-Myc epitope tag at the C terminus, transiently expressed in … (mouse, UniProt Q61495 50-1057)", "T3 construct": "whole, on cells; also called mouse DSG1; murine desmoglein-1", "T3 sequence (looked up)": "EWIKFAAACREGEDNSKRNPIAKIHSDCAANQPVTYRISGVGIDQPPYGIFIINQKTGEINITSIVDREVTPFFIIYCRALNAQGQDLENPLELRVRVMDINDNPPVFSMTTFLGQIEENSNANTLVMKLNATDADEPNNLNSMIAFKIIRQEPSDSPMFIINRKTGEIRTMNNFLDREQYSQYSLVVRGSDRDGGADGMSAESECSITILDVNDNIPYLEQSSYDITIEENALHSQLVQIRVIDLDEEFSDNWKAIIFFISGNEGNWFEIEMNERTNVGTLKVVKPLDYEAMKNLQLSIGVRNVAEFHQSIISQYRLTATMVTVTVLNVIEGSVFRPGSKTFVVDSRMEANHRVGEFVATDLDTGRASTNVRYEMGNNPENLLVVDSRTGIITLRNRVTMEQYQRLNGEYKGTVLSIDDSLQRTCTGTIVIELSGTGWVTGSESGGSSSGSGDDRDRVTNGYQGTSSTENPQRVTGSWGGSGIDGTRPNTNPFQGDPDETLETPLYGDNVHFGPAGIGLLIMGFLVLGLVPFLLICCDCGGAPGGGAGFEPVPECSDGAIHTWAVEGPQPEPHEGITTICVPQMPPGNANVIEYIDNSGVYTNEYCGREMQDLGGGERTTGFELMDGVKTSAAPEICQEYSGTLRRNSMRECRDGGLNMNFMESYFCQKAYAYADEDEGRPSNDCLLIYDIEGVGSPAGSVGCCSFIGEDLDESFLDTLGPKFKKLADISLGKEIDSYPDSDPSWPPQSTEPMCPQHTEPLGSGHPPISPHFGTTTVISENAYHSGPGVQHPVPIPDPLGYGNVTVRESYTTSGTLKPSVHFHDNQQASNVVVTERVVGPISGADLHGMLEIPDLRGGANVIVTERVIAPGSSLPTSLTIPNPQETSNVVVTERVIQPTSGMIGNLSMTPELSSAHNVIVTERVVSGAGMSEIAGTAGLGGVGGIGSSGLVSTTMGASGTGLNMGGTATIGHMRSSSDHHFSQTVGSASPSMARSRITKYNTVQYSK", "assay": "flow cytometry on RAW 264.7 cells transiently expressing murine DSG1", "text": "Murine DSG1 (NCBI accession NP_034209.2) with a c-Myc epitope tag at the protein C terminus was transiently expressed in RAW 264.7 cells using LIPOFECTAMINE™ 3000 (ThermoFisher Scientific) according to the manufacturer's protocol."}}}
{"binder": "B1", "values": [{"measurement": "binding result", "setting": "[1]", "value": "binds"}, {"measurement": "EC50 (pM), HEK-BLUE IL-10 signaling assay (SEAP)", "setting": "[2]", "value": 50, "unit": "pM"}]}
{"binder": "B2", "values": [{"measurement": "binding result", "setting": "[3]", "value": "binds"}]}
{"binder": "B3", "values": [{"measurement": "binding result", "setting": "[4]", "value": "binds"}]}
